Assay results as given in PMC13345917, “EasyGrid: a versatile platform for automated cryo-EM sample preparation and quality control” (Nature Methods, 2026).

Biological target: the molecule itself
Assay: cryo-EM structure; single-particle analysis of KR2 rhodopsin in 50 mM Tris-HCl pH 8.0, 0.1 M NaCl, 0.03% DDM; grids made with EasyGrid at 4 °C; non-symmetrised ab initio model, then refinement with imposed C5 symmetry

B1: KR2 rhodopsin (NaR gene from Krokinobacter eikastus) (natural protein)
chain: MTQELGNANFENFIGATEGFSEIAYQFTSHILTLGYAVMLAGLLYFILTIKNVDKKFQMSNILSAVVMVSAFLLLYAQAQNWTSSFTFNEEVGRYFLDPSGDLFNNGYRYLNWLIDVPMLLFQILFVVSLTTSKFSSVRNQFWFSGAMMIITGYIGQFYEVSNLTAFLVWGAISSAFFFHILWVMKKVINEGKEGISPAGQKILSNIWILFLISWTLYPGAYLMPYLTGVDGFLYSEDGVMARQLVYTIADVSSKVIYGVLLGNLAITLSKNKELVEANS
notes: KR2 rhodopsin, NaR gene from Krokinobacter eikastus, codon-optimised for E. coli; also called KR2 bacterial rhodopsin; source: E. coli C41, pET15b, purified in DDM (Ni-NTA, Superdex 200 Increase)
stoichiometry N: 5
